Assay results as given in patent US12534533B2, “Anti-chemokine like receptor 1 humanized antibodies and their therapeutic applications” (OSE IMMUNOTHERAPEUTICS, priority 2019, dated 2026).
Positions count from the first letter of the chain named.

Tests used:
Mice dendritic cells = test: DCs maturation and differentiation, activation markers by FACS; type: cell-based; conditions: compared to the excipient or isotype control; FIG. 16
Protocol: FIG. 1. Effect of the anti-CMKLR1 variants 1G1, 2G1, 3G1 and 4G1 chimeric antibodies on the DCs maturation and differentiation. Mice dendritic cells were incubated during maturation phase (24 h or 48 h) followed by a differentiation phase with excipient or RvE1 or anti-CMKLR1 antibodies variants (mutations on positions 1 and 2 of SEQ ID No. 8, corresponding to the VH-CDR3: 1G1 (LL), 2G1 (LI), 3G1 (IL) or 4G1 (II) or isotype controls (hIgG1 or mIgG)). Cells were then stained for FACS analysis with cell marker antibodies: A. CD80-PE; B. CD86-FITC; C. CD103-PerCPCy5.5; D. I/Ab-APC. Mean of Fluorescence was determined in each condition. E and F represent the viability of the cells measured by FACS using LIVE/DEAD® kit from Life Technologies in each condition after 24 or 48 hours of maturation respectively.
FIG. 16. Study of the myeloid cell activation markers after CMKLR1 pathway activation. Dendritic cells incubated in excipient, RvE1, 2G1 or isotype control (hIgG1) were then stained for FACS analysis with marker antibodies: A. CD80-PE. B. CD86-FITC. C. CD103-PerCPCy5.5. D. CD40-PeCy7. E. I/Ab-APC. Mean of Fluorescence was determined in each condition.
Bone marrow cells were harvested and cultured in RPMI medium supplemented with 10% FBS, glutamine and antibiotics and the dendritic cell differentiation was induced by GM-CSF at 20 ng/ml for 7 days. Then, immature dendritic cells (iDC) were collected and cultured for 24 hours with LPS (100 ng/ml) to induce the maturation from iDC to mDC. Treatments were added during differentiation and maturation at 2 μg/ml.
Dendritic cells were resuspended in PBS-FBS-EDTA and incubated with live and dead (LIVE/DEAD® Fixable Dead Cell Stains Yellow-Life Technologies) for 30 minutes on ice. Staining of CD11c-BV711, CD11b-APCCy7, I/Ab-APC, CD103-PerCPCy5.5, CCR7-V450, CD40-PeCy7, CD80-PE, CD86-FITC (all provided by BD Pharmingen) were performed.

colitis induced by TNBS = test: acute inflammatory colitis model induced by TNBS; type: in vivo, mice; conditions: RvE1 1 μg per mouse daily, 2G1 10 μg per mouse; FIG. 3
Protocol: FIG. 3. Effect of an anti-CMKLR1 antibody on a mice acute inflammatory colitis model induced by TNBS. Mice received 200 μL of the haptenating agent TNBS at 5% in 50% ethanol on day 0 and then were injected with isotype control hIgG1 (10 μg per mouse) (x), RvE1 (1 μg per mouse) daily (●), or 2G1 antibody (10 μg per mouse) three times (□) for 5 days, or non-treated (wild type animals) (▴). Mice were sacrificed colon length was measured in each condition.
Colitis was induced in 8-10 weeks-old-C57Bl/6 male mice by intrarectal injection of 200 μL of the haptenating agent TNBS at 5% in 50% ethanol on day 0. Treatments were injected intra-peritoneally; RvE1 (1 μg per mouse) daily for three days, or 2G1 antibody (10 μg per mouse) twice for 3 days. Colitis follow-up consisting of body weight and stool score (0: normal stool; 4: blood in stool) parameters were performed daily (data not represented). When mice are euthanized, colon length representing the pathology severity was measured.

[1] = tested on: peritonitis induced by Zymosan A; test: peritonitis model (Zymosan A); type: in vivo, mice; conditions: vs isotype control
Protocol: FIG. 7. Effect of an anti-CMKLR1 antibody on a mice peritonitis model. Preventive injection of anti-CMKLR1 was performed before Zymosan A injection (1 mg per mouse in 1 mL): RvE1 (1 μg per mouse) (●), 2G1 antibody (10 μg per mouse) (□) or isotype control antibody (x). A. PMN numbered during the first 50 hours after Zymosan A injection. B. Macrophages numbered during the first 50 hours after Zymosan A injection. C. Resolution index.
Common peritonitis is induced by intraperitoneal injection of Zymosan A® (1 mg per mouse in 1 mL). Preventive injection of anti-CMKLR1 was performed 5 minutes before Zymosan A injection: RvE1 (1 μg per mouse), 2G1 antibody (10 μg per mouse). Murine peritoneal polymorphonuclear neutrophil (PMN) and macrophages were collected at 2-4-8-16-24 and 48 h after Zymosan A injection and numbered by flow cytometry analysis to determinate the resolution index (Bannenberg et al., 2005).

[2] = molecular target: T1, Biot-C7 peptide (human ChemR23 peptide, SEQ ID No. 60) (Homo sapiens, UniProt Q99788); test: activity ELISA assay, binding of biotinylated C7 peptide; conditions: compared to wild-type 2G1; FIG. 23, FIG. 33
T1 construct: purchased synpeptide; host or cells: chemical synthesis
T1 sequence (Q99788 275-307 limits assumed): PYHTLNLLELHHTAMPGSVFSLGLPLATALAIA
From the text: FIG. 23. Binding recognition of C7 peptide by humanized anti-CMKLR1 derived from 2G1. Binding of C7biot in the supernatant of CHO cells transfected with different combinations of heavy and light chains (VHWT+VLWT: combination of SEQ ID No. 37 and SEQ ID No. 49; HCLC: combination of SEQ ID No. 42 and SEQ ID No.52; HDLC: combination of SEQ ID No. 43 and SEQ ID No.52; HCLD: combination of SEQ ID No. 42 and SEQ ID No.53; HDLD: combination of SEQ ID No. 43 and SEQ ID No.53).
FIG. 24. ED50 of anti-CMKLR1 derived from 2G1 antibody. 2G1 wt: HALA: combination of SEQ ID No. 41 and SEQ ID No. 50; combination of SEQ ID No. 37 and SEQ ID No. 49; HCLC: combination of SEQ ID No. 42 and SEQ ID No.52; HDLC: combination of SEQ ID No. 43 and SEQ ID No.52; HCLD: combination of SEQ ID No. 42 and SEQ ID No.53; HDLD: combination of SEQ ID No. 43 and SEQ ID No.53.
FIG. 33—Binding of purified antibodies on human ChemR23 peptide by ELISA assay (A), with ED50 concentration (ng/ml) (B). For activity ELISA assay, donkey anti-human IgG, Fc specific (Jackson Immunoresearch; USA; reference 709-005-098) was immobilized on plastic at 1.3 μg/ml in borate buffer (pH9) and purified antibody was added to measure binding in BSA1% buffer, compared to wild-type 2G1.
For activity ELISA assay, donkey anti-human IgG, Fc specific (Jackson Immunoresearch; USA; reference 709-005-098) was immobilized on plastic at 1.3 μg/ml in borate buffer (pH9) and purified antibody were added to measure binding in BSA1% buffer, compared to wild-type 2G1.
For activity ELISA assay, donkey anti-human IgG, Fc specific (Jackson Immunoresearch; USA; reference 709-005-098) was immobilized on plastic at 1.3 μg/ml in borate buffer (pH9) and purified antibody was added to measure binding in BSA1% buffer, compared to wild-type 2G1.

[3] = tested on: PMN from healthy volunteers; test: Percentage of dead PMN (mortality of neutrophils) on coated antibodies; type: cell-based, human
Protocol: […] Mortality of PMN was analyzed by incubating PMN with specific markers of the mortality and viability and then counted by picture analysis.
FIG. 36—Increase of dead PMN neutrophils in vitro with anti-ChemR23 antibodies coated. PMN from healthy volunteers were incubated in culture medium with coated HEF-LDT52S, HEF-LEF and HDLD antibody variants at 10 μg/mL for 24 h and stained either with a dead/viability kit (LIVE/DEAD (Invitrogen)). The percentages of positive cells were obtained by analyzing the pictures with Fiji software. Isotype control was added as control.
(§1) PMN from healthy volunteers were incubated in culture medium with coated Ab at 10 μg/mL for 24 h or 5 h and stained either with a dead/viability kit (LIVE/DEAD (Invitrogen)) or a specific marker of reactive oxygen species (ROS) respectively. The percentages of positive cells were obtained by analyzing the pictures with ImageJ software.
PMN from healthy volunteers were incubated in culture medium with coated HEF-LDT52S, HEF-LEF and HDLD antibody variants at 10 μg/mL for 24 h and stained either with a dead/viability kit (LIVE/DEAD (Invitrogen)). The percentages of positive cells were obtained by analyzing the pictures with Fiji software. Isotype control was added as control.

[4] = tested on: ROS production by PMN from healthy volunteers; test: ROS test in PMN; type: cell-based, human; conditions: coated Ab at 10 μg/mL, after 5 h; FIG. 26C
Protocol: (§2) Neutrophils were isolated from blood of healthy volunteers and cultured for 24 h (Mortality analysis), or 4 h, 6 h, 11 h (Caspase-3 assay), or 5 h (ROS assay) on coated Iso ctrl (cross), chimeric anti-ChemR23 2G1 (square) or different humanized versions of the 2G1 (diamonds). Mortality of PMN was analyzed by incubating PMN with specific markers of the mortality and viability and then counted by picture analysis.
as §1

[5] = tested on: Caspase-3 in PMN from healthy volunteers; test: Caspase-3 expression in PMN by Western Blot; type: cell-based, human; conditions: coated Ab at 10 μg/mL, FIG. 26B
Protocol: as §2
PMN from healthy volunteers were incubated in culture medium with coated Ab at 10 μg/mL for different times and collected for Caspase-3 staining analyzed by Western Blot. The intensity of Capase-3 expression was calculated on WB.

CC[C@@H](O)/C=C/C=C\C[C@@H](O)/C=C/C=C/C=C\[C@@H](O)CCCC(=O)O [RvE1, Resolvin E1, reference compound]
expression of CD80, CD86, CD103, CD40 and IAb (Mice dendritic cells): strong decrease
colon length (colitis induced by TNBS): the same as normal animal
PMNs number ([1]; first 50 hours after Zymosan A, FIG. 7A): slightly less
Macrophages number ([1]; first 50 hours after Zymosan A, FIG. 7B): slightly less
resolution index ([1]; FIG. 7C): better resolution index

B1: HCLC: humanized 2G1 variant: combination of SEQ ID No. 42 and SEQ ID No. 52 (antibody, V domains shown)
VH: EVQLVESGGGLVQPGGSLRLSCAASGFTFSSYGMSWVRQAPGKGLELVATINRYGGSTYYAASVKGRFTISRDNSKNTLYLQMNSLRAEDTAVYYCPKLIYYGNEGDSWGQGTLVTVSS
VL: AIQLTQSPSSLSASVGDRVTITCRASQSVSFLHWYQQKPGKAPKRWIYDATKLTSGVPSRFSGSGSGTDFTLTISSLQPEDFATYYCQQWNSKPPLTFGGGTKVEIK
binding activity to antigen-specific peptides (C7 peptide) [2]: even better than the germline antibody HALA and the wild type antibody 2G1

B2: HEF-LEF: humanized 2G1 variant: HEF (SEQ ID NO: 91) with LEF (SEQ ID NO: 55) (antibody, V domains shown)
VH: B1 VH with G33A, A49S, N52S, R53G, Y54S
VL: B1 VL with W46L, T51S, T54E, N91Q
mortality of PMN (percentage of dead PMN) ([3]; coated Ab at 10 μg/mL, 24 h, FIG. 26, FIG. 36): accelerate the death of PMN

B3: HCLD: humanized 2G1 variant: combination of SEQ ID No. 42 and SEQ ID No. 53 (antibody, V domains shown)
VH: B1 VH
VL: B1 VL with N91Q
binding activity to antigen-specific peptides (C7 peptide) [2]: even better than the germline antibody HALA and the wild type antibody 2G1

B4: HDLC: humanized 2G1 variant: combination of SEQ ID No. 43 and SEQ ID No. 52 (antibody, V domains shown)
VH: B1 VH with G33A
VL: B1 VL
binding activity to antigen-specific peptides (C7 peptide) [2]: even better than the germline antibody HALA and the wild type antibody 2G1

B5: HALA: humanized 2G1 germline antibody: combination of SEQ ID No. 41 and SEQ ID No. 50 (antibody, V domains shown)
VH: B1 VH with A61P, A62D, K98R
VL: B1 VL with R24S, Q27S, L32M, A50T, F70Y
percentage of dead cells ([3]; at 48 hours, compared with IgG1 control): similar
ROS production by PMN [4]: increase the ROS production
caspase-3 cleavage ([5]; 4 h, 6 h, 11 h): increases caspase-3 cleavage
caspase-3 activity [5]: higher effect on caspase 3 activity as compared to the 2G1 antibody
